Measurements: PMC2783309 (Experimental cell research, 2009)

Target: Biotinylated Clostridium difficile toxin A (Clostridium difficile strain VPI 10463, UniProt P16154 1-2710)
Assay: pull-down

Sequence of Biotinylated Clostridium difficile toxin A (P16154 whole entry): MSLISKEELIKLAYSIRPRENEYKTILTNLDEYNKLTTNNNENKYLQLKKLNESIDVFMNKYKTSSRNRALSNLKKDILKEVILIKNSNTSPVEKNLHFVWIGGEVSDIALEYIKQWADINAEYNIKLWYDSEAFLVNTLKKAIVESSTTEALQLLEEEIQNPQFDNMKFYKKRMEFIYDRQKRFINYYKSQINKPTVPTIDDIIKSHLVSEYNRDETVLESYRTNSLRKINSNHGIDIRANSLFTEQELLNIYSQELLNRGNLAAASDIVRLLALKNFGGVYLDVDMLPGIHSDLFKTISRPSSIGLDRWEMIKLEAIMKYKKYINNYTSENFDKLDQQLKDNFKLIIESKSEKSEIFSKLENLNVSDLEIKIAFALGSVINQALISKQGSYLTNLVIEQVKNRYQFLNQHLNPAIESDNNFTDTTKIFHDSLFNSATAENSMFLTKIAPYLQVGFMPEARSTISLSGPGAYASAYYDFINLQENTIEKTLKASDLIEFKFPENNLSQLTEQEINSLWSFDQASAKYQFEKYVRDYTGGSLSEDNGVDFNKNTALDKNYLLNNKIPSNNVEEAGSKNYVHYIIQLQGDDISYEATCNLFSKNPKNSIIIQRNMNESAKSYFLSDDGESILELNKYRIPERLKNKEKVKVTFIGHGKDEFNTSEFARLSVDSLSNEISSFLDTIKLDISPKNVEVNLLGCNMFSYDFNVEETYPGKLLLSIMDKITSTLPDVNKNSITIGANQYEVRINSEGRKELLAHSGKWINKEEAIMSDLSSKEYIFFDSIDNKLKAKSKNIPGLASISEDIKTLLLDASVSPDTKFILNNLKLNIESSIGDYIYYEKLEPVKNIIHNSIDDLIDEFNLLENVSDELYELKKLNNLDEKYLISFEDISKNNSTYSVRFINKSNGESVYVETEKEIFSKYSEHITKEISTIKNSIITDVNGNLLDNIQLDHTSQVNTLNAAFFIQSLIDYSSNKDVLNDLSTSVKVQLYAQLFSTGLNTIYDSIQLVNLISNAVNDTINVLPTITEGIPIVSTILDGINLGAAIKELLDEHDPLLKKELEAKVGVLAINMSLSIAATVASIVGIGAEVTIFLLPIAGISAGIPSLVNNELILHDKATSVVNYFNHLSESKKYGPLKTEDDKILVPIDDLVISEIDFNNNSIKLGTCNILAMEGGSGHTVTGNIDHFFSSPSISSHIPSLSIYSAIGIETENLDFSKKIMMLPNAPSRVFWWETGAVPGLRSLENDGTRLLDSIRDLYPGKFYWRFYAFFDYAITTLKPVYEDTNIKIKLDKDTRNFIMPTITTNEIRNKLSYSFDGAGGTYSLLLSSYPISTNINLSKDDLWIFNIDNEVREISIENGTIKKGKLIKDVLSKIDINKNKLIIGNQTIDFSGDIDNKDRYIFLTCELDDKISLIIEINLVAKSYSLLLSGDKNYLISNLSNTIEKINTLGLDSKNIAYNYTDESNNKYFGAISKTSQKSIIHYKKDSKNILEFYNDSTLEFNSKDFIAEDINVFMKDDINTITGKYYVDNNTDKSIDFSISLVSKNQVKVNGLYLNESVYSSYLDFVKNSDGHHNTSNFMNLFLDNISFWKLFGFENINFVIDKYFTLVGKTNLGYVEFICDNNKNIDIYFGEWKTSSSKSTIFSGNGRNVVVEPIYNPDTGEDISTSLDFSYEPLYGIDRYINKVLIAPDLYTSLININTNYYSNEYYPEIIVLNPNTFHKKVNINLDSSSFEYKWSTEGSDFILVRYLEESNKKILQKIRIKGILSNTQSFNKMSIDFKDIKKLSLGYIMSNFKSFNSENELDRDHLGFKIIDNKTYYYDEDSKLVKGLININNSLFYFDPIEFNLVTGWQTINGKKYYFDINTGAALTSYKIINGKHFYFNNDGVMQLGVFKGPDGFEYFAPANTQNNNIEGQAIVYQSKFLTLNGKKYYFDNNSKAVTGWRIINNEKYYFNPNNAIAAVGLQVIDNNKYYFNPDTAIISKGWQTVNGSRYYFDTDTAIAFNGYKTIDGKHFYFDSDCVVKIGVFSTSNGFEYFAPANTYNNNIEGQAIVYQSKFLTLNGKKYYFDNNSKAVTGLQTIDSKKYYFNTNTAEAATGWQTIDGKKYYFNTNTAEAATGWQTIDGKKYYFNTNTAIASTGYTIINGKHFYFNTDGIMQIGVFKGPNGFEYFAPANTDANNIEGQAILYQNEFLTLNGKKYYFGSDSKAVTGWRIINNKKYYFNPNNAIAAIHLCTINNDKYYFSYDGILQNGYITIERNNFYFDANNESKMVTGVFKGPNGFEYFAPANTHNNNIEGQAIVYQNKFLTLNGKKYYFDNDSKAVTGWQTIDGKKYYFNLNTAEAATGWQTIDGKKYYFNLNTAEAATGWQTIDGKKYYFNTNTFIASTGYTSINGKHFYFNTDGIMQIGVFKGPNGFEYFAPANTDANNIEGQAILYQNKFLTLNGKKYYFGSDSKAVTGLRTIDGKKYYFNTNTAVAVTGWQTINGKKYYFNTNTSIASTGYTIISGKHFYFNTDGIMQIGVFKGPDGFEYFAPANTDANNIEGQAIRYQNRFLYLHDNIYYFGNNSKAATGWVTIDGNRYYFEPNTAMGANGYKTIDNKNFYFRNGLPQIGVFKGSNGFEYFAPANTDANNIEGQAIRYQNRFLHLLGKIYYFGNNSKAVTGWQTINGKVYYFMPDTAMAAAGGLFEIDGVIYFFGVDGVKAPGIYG

B1: GST-Src catalytic domain (domain or fragment, UniProt P12931-1 226-536, looked up)
chain: LQQLVAYYSKHADGLCHRLTTVCPTSKPQTQGLAKDAWEIPRESLRLEVKLGQGCFGEVWMGTWNGTTRVAIKTLKPGTMSPEAFLQEAQVMKKLRHEKLVQLYAVVSEEPIYIVTEYMSKGSLLDFLKGETGKYLRLPQLVDMAAQIASGMAYVERMNYVHRDLRAANILVGENLVCKVADFGLARLIEDNEYTARQGAKFPIKWTAPEAALYGRFTIKSDVWSFGILLTELTTKGRVPYPGMVNREVLDQVERGYRMPCPPECPESLHDLMCQCWRKEPEERPTFEYLQAFLEDYFTSTEPQYQPGENL
  binding result: binds
